What follows are sequences tested on Escherichia coli TOP10 (assay: shrunken log2 fold change of peptide-encoding DNA abundance (4.5 h post-induction vs induction); higher = less antimicrobial activity (less host growth inhibition)). Conditions: time post-induction: 4.5 h; library: site-saturation at positions 5, 18, 19, 20.
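Also: peptides expressed intracellularly from a pBAD plasmid library in pooled LB shake-flask culture, induced with 0.3% L-arabinose, DNA abundance read by NGS, three biological replicates, DESeq2 with apeglm shrinkage.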

| Sequence | shrunken log2 fold change |
| --- | --- |
| RRIRPRPPRLPRPRPRPFNHPRP | -0.304 |
| RRIRPRPPRLPRPRPRPFNVPRP | -0.0975 |
| RRIRPRPPRLPRPRPRPFPHPRP | -0.129 |
| RRIRPRPPRLPRPRPRPFRDPRP | -0.118 |
| RRIRPRPPRLPRPRPRPFSHPRP | -0.402 |
| RRIRPRPPRLPRPRPRPFTKPRP | -0.148 |
| RRIRPRPPRLPRPRPRPFVFPRP | -0.2 |
| RRIRPRPPRLPRPRPRPFVGPRP | -0.297 |
| RRIRPRPPRLPRPRPRPFWGPRP | -0.0925 |
| RRIRPRPPRLPRPRPRPFYWPRP | -0.107 |
| RRIRPRPPRLPRPRPRPGCRPRP | 0.289 |
| RRIRPRPPRLPRPRPRPGDCPRP | 0.482 |
| RRIRPRPPRLPRPRPRPGEMPRP | 0.294 |
| RRIRPRPPRLPRPRPRPGEPPRP | 0.0896 |
| RRIRPRPPRLPRPRPRPGEWPRP | 0.214 |
| RRIRPRPPRLPRPRPRPGGAPRP | 0.47 |
| RRIRPRPPRLPRPRPRPGGFPRP | 0.318 |
| RRIRPRPPRLPRPRPRPGGQPRP | -0.0466 |
| RRIRPRPPRLPRPRPRPGKKPRP | 0.00372 |
| RRIRPRPPRLPRPRPRPGKTPRP | 0.294 |
| RRIRPRPPRLPRPRPRPGKVPRP | -0.0669 |
| RRIRPRPPRLPRPRPRPGKYPRP | -0.132 |
| RRIRPRPPRLPRPRPRPGLEPRP | 0.195 |
| RRIRPRPPRLPRPRPRPGLMPRP | 0.184 |
| RRIRPRPPRLPRPRPRPGLSPRP | 0.206 |

| Sequence | shrunken log2 fold change |
| --- | --- |
| RRIRPRPPRLPRPRPRPGLTPRP | 0.0985 |
| RRIRPRPPRLPRPRPRPGLWPRP | 0.341 |
| RRIRPRPPRLPRPRPRPGMDPRP | -0.00631 |
| RRIRPRPPRLPRPRPRPGNIPRP | -0.000778 |
| RRIRPRPPRLPRPRPRPGNMPRP | -0.119 |
| RRIRPRPPRLPRPRPRPGPKPRP | 0.394 |
| RRIRPRPPRLPRPRPRPGPMPRP | 0.293 |
| RRIRPRPPRLPRPRPRPGTMPRP | -0.133 |
| RRIRPRPPRLPRPRPRPHAAPRP | 0.3 |
| RRIRPRPPRLPRPRPRPHACPRP | 0.00839 |
| RRIRPRPPRLPRPRPRPHANPRP | -0.0736 |
| RRIRPRPPRLPRPRPRPHDVPRP | -0.242 |
| RRIRPRPPRLPRPRPRPHDYPRP | -0.0318 |
| RRIRPRPPRLPRPRPRPHFDPRP | -0.0993 |
| RRIRPRPPRLPRPRPRPHFFPRP | 0.118 |
| RRIRPRPPRLPRPRPRPHFIPRP | -0.468 |
| RRIRPRPPRLPRPRPRPHGKPRP | 0.0675 |
| RRIRPRPPRLPRPRPRPHGMPRP | -0.531 |
| RRIRPRPPRLPRPRPRPHGSPRP | 0.063 |
| RRIRPRPPRLPRPRPRPHHWPRP | -0.103 |
| RRIRPRPPRLPRPRPRPHIRPRP | -0.0938 |
| RRIRPRPPRLPRPRPRPHIWPRP | -0.3 |
| RRIRPRPPRLPRPRPRPHMRPRP | 0.0614 |
| RRIRPRPPRLPRPRPRPHPPPRP | 0.397 |
| RRIRPRPPRLPRPRPRPHPRPRP | 0.597 |

| Sequence | shrunken log2 fold change |
| --- | --- |
| RRIRPRPPRLPRPRPRPHQKPRP | -0.0717 |
| RRIRPRPPRLPRPRPRPHQRPRP | -0.232 |
| RRIRPRPPRLPRPRPRPHQTPRP | -0.0729 |
| RRIRPRPPRLPRPRPRPHRAPRP | 0.402 |
| RRIRPRPPRLPRPRPRPHSMPRP | -0.408 |
| RRIRPRPPRLPRPRPRPHTSPRP | -0.622 |
| RRIRPRPPRLPRPRPRPHVKPRP | -0.013 |
| RRIRPRPPRLPRPRPRPHYCPRP | -0.997 |
| RRIRPRPPRLPRPRPRPHYKPRP | -0.874 |
| RRIRPRPPRLPRPRPRPIAAPRP | 0.621 |
| RRIRPRPPRLPRPRPRPIATPRP | -0.159 |
| RRIRPRPPRLPRPRPRPICEPRP | 0.227 |
| RRIRPRPPRLPRPRPRPICKPRP | -0.081 |
| RRIRPRPPRLPRPRPRPIDFPRP | -0.125 |
| RRIRPRPPRLPRPRPRPIDKPRP | -0.188 |
| RRIRPRPPRLPRPRPRPIDTPRP | -0.35 |
| RRIRPRPPRLPRPRPRPIDYPRP | -0.13 |
| RRIRPRPPRLPRPRPRPIEMPRP | 0.00861 |
| RRIRPRPPRLPRPRPRPIILPRP | -0.0642 |
| RRIRPRPPRLPRPRPRPIKAPRP | -0.00863 |
| RRIRPRPPRLPRPRPRPILIPRP | -0.106 |
| RRIRPRPPRLPRPRPRPILWPRP | 0.0824 |
| RRIRPRPPRLPRPRPRPIMQPRP | -0.391 |
| RRIRPRPPRLPRPRPRPINMPRP | -0.503 |
| RRIRPRPPRLPRPRPRPIPNPRP | -0.353 |

| Sequence | shrunken log2 fold change |
| --- | --- |
| RRIRPRPPRLPRPRPRPIPWPRP | 0.00327 |
| RRIRPRPPRLPRPRPRPIRWPRP | -0.0338 |
| RRIRPRPPRLPRPRPRPISLPRP | -0.427 |
| RRIRPRPPRLPRPRPRPISQPRP | -0.0721 |
| RRIRPRPPRLPRPRPRPITAPRP | -0.187 |
| RRIRPRPPRLPRPRPRPIVIPRP | -0.328 |
| RRIRPRPPRLPRPRPRPIVKPRP | 0.000733 |
| RRIRPRPPRLPRPRPRPIWGPRP | 0.0815 |
| RRIRPRPPRLPRPRPRPIYEPRP | -0.0945 |
| RRIRPRPPRLPRPRPRPIYYPRP | -0.323 |
| RRIRPRPPRLPRPRPRPKCEPRP | -0.187 |
| RRIRPRPPRLPRPRPRPKCFPRP | 0.434 |
| RRIRPRPPRLPRPRPRPKCNPRP | -0.125 |
| RRIRPRPPRLPRPRPRPKDDPRP | -0.0737 |
| RRIRPRPPRLPRPRPRPKDTPRP | -0.173 |
| RRIRPRPPRLPRPRPRPKEYPRP | -0.356 |
| RRIRPRPPRLPRPRPRPKHAPRP | 0.824 |
| RRIRPRPPRLPRPRPRPKIAPRP | -0.1 |
| RRIRPRPPRLPRPRPRPKINPRP | -0.32 |
| RRIRPRPPRLPRPRPRPKIWPRP | 0.407 |
| RRIRPRPPRLPRPRPRPKKGPRP | -0.0676 |
| RRIRPRPPRLPRPRPRPKMNPRP | -0.273 |
| RRIRPRPPRLPRPRPRPKNIPRP | -0.719 |
| RRIRPRPPRLPRPRPRPKNVPRP | -0.169 |
| RRIRPRPPRLPRPRPRPKPLPRP | 0.567 |

| Sequence | shrunken log2 fold change |
| --- | --- |
| RRIRPRPPRLPRPRPRPKPTPRP | 0.434 |
| RRIRPRPPRLPRPRPRPKQKPRP | 0.123 |
| RRIRPRPPRLPRPRPRPKRAPRP | 0.395 |
| RRIRPRPPRLPRPRPRPKRHPRP | 0.267 |
| RRIRPRPPRLPRPRPRPKRNPRP | 0.142 |
| RRIRPRPPRLPRPRPRPKSVPRP | -0.119 |
| RRIRPRPPRLPRPRPRPKTPPRP | 0.0677 |
| RRIRPRPPRLPRPRPRPKWDPRP | 0.319 |
| RRIRPRPPRLPRPRPRPKWKPRP | -0.0038 |
| RRIRPRPPRLPRPRPRPLCAPRP | 0.119 |
| RRIRPRPPRLPRPRPRPLCGPRP | 0.623 |
| RRIRPRPPRLPRPRPRPLCMPRP | -0.444 |
| RRIRPRPPRLPRPRPRPLDAPRP | 0.131 |
| RRIRPRPPRLPRPRPRPLFIPRP | -0.459 |
| RRIRPRPPRLPRPRPRPLFWPRP | 0.296 |
| RRIRPRPPRLPRPRPRPLFYPRP | -0.383 |
| RRIRPRPPRLPRPRPRPLGGPRP | 1.53 |
| RRIRPRPPRLPRPRPRPLHPPRP | 0.252 |
| RRIRPRPPRLPRPRPRPLIEPRP | -0.0879 |
| RRIRPRPPRLPRPRPRPLIKPRP | -0.268 |
| RRIRPRPPRLPRPRPRPLLNPRP | -0.224 |
| RRIRPRPPRLPRPRPRPLMPPRP | -0.188 |
| RRIRPRPPRLPRPRPRPLNYPRP | -0.615 |
| RRIRPRPPRLPRPRPRPLPMPRP | 0.53 |
| RRIRPRPPRLPRPRPRPLQCPRP | -1.25 |

| Sequence | shrunken log2 fold change |
| --- | --- |
| RRIRPRPPRLPRPRPRPLQEPRP | 0.18 |
| RRIRPRPPRLPRPRPRPLQKPRP | -0.0453 |
| RRIRPRPPRLPRPRPRPLSNPRP | -0.1 |
| RRIRPRPPRLPRPRPRPLTDPRP | 0.111 |
| RRIRPRPPRLPRPRPRPLTMPRP | -0.186 |
| RRIRPRPPRLPRPRPRPLWWPRP | 0.649 |
| RRIRPRPPRLPRPRPRPMAAPRP | 0.208 |
| RRIRPRPPRLPRPRPRPMCNPRP | -0.075 |
| RRIRPRPPRLPRPRPRPMCYPRP | -0.221 |
| RRIRPRPPRLPRPRPRPMDFPRP | -0.115 |
| RRIRPRPPRLPRPRPRPMDPPRP | 0.0118 |
| RRIRPRPPRLPRPRPRPMEKPRP | -0.00992 |
| RRIRPRPPRLPRPRPRPMELPRP | -0.00106 |
| RRIRPRPPRLPRPRPRPMFRPRP | -0.119 |
| RRIRPRPPRLPRPRPRPMGRPRP | -0.0125 |
| RRIRPRPPRLPRPRPRPMICPRP | -0.172 |
| RRIRPRPPRLPRPRPRPMLKPRP | 0.0171 |
| RRIRPRPPRLPRPRPRPMLQPRP | -0.105 |
| RRIRPRPPRLPRPRPRPMMMPRP | -0.167 |
| RRIRPRPPRLPRPRPRPMNFPRP | -0.165 |
| RRIRPRPPRLPRPRPRPMNSPRP | -0.125 |
| RRIRPRPPRLPRPRPRPMSAPRP | 0.0743 |
| RRIRPRPPRLPRPRPRPMSPPRP | -0.194 |
| RRIRPRPPRLPRPRPRPMTIPRP | -0.421 |
| RRIRPRPPRLPRPRPRPMWSPRP | -0.276 |
